# Measurements: PMC5745148, “Mechanistic Insights into Autoinhibition of the Oncogenic Chromatin Remodeler ALC1” (Molecular Cell, 2017)
# T1: ALC1^cat (ATPase motor of human ALC1, residues 16-612), 6xHis-tagged (human, UniProt Q86WJ1 16-612)
# T1 construct: human ALC1 (Amplified in liver cancer 1; CHD1L), residues 16-612; Made by PCR-based mutagenesis of the ALC1^fl construct (pNIC-CH2); also called ALC1/CHD1L variant that lacks the macro domain; source: E. coli Rosetta 2 (DE3), purified (HisTrap, Q HP, Superdex 200)
# T1 sequence (looked up): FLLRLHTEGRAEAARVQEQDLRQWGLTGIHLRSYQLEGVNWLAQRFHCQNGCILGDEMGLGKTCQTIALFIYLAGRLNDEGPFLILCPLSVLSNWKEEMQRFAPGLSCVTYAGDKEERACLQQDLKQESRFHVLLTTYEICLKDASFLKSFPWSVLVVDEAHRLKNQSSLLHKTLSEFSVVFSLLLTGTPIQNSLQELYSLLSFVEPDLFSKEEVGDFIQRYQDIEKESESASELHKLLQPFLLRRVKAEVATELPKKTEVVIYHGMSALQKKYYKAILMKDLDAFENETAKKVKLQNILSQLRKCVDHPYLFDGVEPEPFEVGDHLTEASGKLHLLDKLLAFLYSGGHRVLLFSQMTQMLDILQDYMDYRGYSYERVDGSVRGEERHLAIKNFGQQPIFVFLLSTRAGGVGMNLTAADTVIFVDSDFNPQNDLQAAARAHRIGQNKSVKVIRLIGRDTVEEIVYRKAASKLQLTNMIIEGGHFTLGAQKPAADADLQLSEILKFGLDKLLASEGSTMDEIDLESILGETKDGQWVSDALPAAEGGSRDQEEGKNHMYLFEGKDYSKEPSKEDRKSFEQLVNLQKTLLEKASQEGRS
# Key:
# Settings in all cases: both partners purified
# [1] = biological target: T1, ALC1^cat (ATPase motor of human ALC1, …); experiment: SEC; 7 nmol each of ALC1^cat and ALC1^macro mixed, 10 min on ice, Superdex 200 10/300 GL, 20 mM MES pH 6.5, 300 mM NaCl, 10% glycerol, 0.5 mM TCEP; peak fractions on SDS-PAGE
# [2] = biological target: T1, ALC1^cat (ATPase motor of human ALC1, …); experiment: pull-down; 5 μM 6xHis-ALC1^cat and 5 μM ALC1^macroΔ6xHis, Ni-NTA agarose, 1 h at 4°C, 20 mM HEPES pH 7.5, 300 mM NaCl, 10% glycerol, 20 mM imidazole, 0.5 mM TCEP; where indicated 5 μM GST-PARP1 pre-incubated with dsDNA and NAD+; eluate on SDS-PAGE
# [3] = biological target: T2, PARylated GST-tagged human PARP1 (human, UniProt P09874 1-1014, poly(ADP-ribose) (PARylated by incubation with dsDNA and NAD+; sites not stated)); experiment: as above
# T2 construct: human PARP1; also called PARylated PARP1; GST-tagged PARP1 (BPS Bioscience); source: bought: BPS Bioscience; incubated with 230 bp dsDNA and NAD+ for 5 min at 37°C
# [4] = biological target: T3, PARylated (activated) human PARP1 used in HDX-MS (human, UniProt P09874 1-1014, poly(ADP-ribose) (PARylated; sites not stated)); experiment: HDX-MS; ALC1^fl with and without PARylated or non-PARylated PARP1; 50 mM Tris, 50 mM NaCl, 5 mM MgCl2, 1.5 μM 239 bp dsDNA, 1 mM ATP, 1 mM TCEP pH 7.9, ~70% D2O, 23°C, five time points
# T3 construct: human PARP1; also called PARylated PARP1
# T3 sequence (P09874 whole entry): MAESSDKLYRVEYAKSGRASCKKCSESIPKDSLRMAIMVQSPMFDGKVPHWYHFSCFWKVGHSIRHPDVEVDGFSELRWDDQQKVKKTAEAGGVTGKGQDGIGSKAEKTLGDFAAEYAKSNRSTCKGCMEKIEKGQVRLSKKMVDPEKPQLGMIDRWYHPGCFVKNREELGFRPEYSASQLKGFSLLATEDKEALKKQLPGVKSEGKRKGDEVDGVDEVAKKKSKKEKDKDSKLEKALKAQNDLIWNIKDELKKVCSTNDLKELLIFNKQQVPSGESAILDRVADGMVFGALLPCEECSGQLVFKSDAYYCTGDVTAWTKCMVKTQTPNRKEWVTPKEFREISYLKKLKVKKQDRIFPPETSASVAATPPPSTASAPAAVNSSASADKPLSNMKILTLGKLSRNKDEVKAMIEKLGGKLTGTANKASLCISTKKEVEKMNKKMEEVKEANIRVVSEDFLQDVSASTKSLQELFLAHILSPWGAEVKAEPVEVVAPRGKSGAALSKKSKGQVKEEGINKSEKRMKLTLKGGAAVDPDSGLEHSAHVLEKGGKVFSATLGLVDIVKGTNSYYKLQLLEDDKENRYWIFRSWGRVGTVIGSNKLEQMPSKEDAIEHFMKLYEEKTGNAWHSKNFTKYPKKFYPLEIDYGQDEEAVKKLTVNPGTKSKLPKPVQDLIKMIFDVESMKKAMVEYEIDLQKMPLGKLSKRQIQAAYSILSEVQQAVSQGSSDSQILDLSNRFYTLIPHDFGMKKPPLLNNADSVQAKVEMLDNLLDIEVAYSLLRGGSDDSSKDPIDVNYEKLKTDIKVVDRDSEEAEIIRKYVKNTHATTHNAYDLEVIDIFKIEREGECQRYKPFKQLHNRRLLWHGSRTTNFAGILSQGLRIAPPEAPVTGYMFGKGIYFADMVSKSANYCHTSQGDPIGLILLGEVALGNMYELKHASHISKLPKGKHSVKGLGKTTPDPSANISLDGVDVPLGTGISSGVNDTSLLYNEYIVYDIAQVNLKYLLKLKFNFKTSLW
# T2 sequence (P09874 whole entry): as above
binder,measurement,setting,value
"ALC1^macro (macro domain construct of human ALC1, residues 613-879), 6xHis-tagged (domain or fragment, UniProt Q86WJ1 613-879, looked up, human ALC1 (CHD1L), residues 613-879 (linker and macro domain); Made from the ALC1^fl construct (pNIC-CH2); no cleavage of the tag is described for this version; source: E. coli Rosetta 2 (DE3), purified (HisTrap, Q HP/SP HP, Superdex 200)) LRNKGSVLIPGLVEGSTKRKRVLSPEELEDRQKKRQEAAAKRRRLIEEKKRQKEEAEHKKKMAWWESNNYQSFCLPSEESEPEDLENGEESSAELDYQDPDATSLKYVSGDVTHPQAGAEDALIVHCVDDSGHWGRGGLFTALEKRSAEPRKIYELAGKMKDLSLGGVLLFPVDDKESRNKGQDLLALIVAQHRDRSNVLSGIKMAALEEGLKKIFLAAKKKKASVHLPRIGHATKGFNWYGTERLIRKHLAARGIPTYIYYFPRSK",binding result,[1],binds
"ALC1^macroΔ6xHis (macro domain construct of human ALC1, residues 613-879, 6xHis tag removed by TEV) (domain or fragment, UniProt Q86WJ1 613-879, looked up, human ALC1 (CHD1L), residues 613-879; A TEV-cleavage site was added to the ALC1^macro construct; also called ALC1^macro6xΔHis; non-tagged macro domain; source: E. coli Rosetta 2 (DE3), purified; TEV cleavage of the 6xHis tag, second HisTrap flow-through) LRNKGSVLIPGLVEGSTKRKRVLSPEELEDRQKKRQEAAAKRRRLIEEKKRQKEEAEHKKKMAWWESNNYQSFCLPSEESEPEDLENGEESSAELDYQDPDATSLKYVSGDVTHPQAGAEDALIVHCVDDSGHWGRGGLFTALEKRSAEPRKIYELAGKMKDLSLGGVLLFPVDDKESRNKGQDLLALIVAQHRDRSNVLSGIKMAALEEGLKKIFLAAKKKKASVHLPRIGHATKGFNWYGTERLIRKHLAARGIPTYIYYFPRSK",binding result,[2],binds
same,binding result,[3],binds
"ALC1^fl (essentially full-length human ALC1, residues 16-879), 6xHis-tagged (enzyme, UniProt Q86WJ1 16-879, looked up, human ALC1 (CHD1L), residues 16-879; also called Human ALC1^fl (16-879) pNIC-CH2; source: E. coli Rosetta 2 (DE3), purified (HisTrap, Q HP/SP HP, Superdex 200)) FLLRLHTEGRAEAARVQEQDLRQWGLTGIHLRSYQLEGVNWLAQRFHCQNGCILGDEMGLGKTCQTIALFIYLAGRLNDEGPFLILCPLSVLSNWKEEMQRFAPGLSCVTYAGDKEERACLQQDLKQESRFHVLLTTYEICLKDASFLKSFPWSVLVVDEAHRLKNQSSLLHKTLSEFSVVFSLLLTGTPIQNSLQELYSLLSFVEPDLFSKEEVGDFIQRYQDIEKESESASELHKLLQPFLLRRVKAEVATELPKKTEVVIYHGMSALQKKYYKAILMKDLDAFENETAKKVKLQNILSQLRKCVDHPYLFDGVEPEPFEVGDHLTEASGKLHLLDKLLAFLYSGGHRVLLFSQMTQMLDILQDYMDYRGYSYERVDGSVRGEERHLAIKNFGQQPIFVFLLSTRAGGVGMNLTAADTVIFVDSDFNPQNDLQAAARAHRIGQNKSVKVIRLIGRDTVEEIVYRKAASKLQLTNMIIEGGHFTLGAQKPAADADLQLSEILKFGLDKLLASEGSTMDEIDLESILGETKDGQWVSDALPAAEGGSRDQEEGKNHMYLFEGKDYSKEPSKEDRKSFEQLVNLQKTLLEKASQEGRSLRNKGSVLIPGLVEGSTKRKRVLSPEELEDRQKKRQEAAAKRRRLIEEKKRQKEEAEHKKKMAWWESNNYQSFCLPSEESEPEDLENGEESSAELDYQDPDATSLKYVSGDVTHPQAGAEDALIVHCVDDSGHWGRGGLFTALEKRSAEPRKIYELAGKMKDLSLGGVLLFPVDDKESRNKGQDLLALIVAQHRDRSNVLSGIKMAALEEGLKKIFLAAKKKKASVHLPRIGHATKGFNWYGTERLIRKHLAARGIPTYIYYFPRSK",binding result,[4],binds
